Experimental data published in patent US20160130361A1.

Experiments:
rFVIIIFc [1] = assay: SPR (ProteOn XPR36), mean of triplicate
[2] = molecular target: BDD rFVIII (B domain deleted recombinant Factor VIII) (human) (UniProt P00451); assay: SPR (ProteOn XPR36), mean of triplicate
rFVIIIFc [3] = assay: SPR, ProteOn XPR36; run 1 of 3 (top panel)
[4] = molecular target: BDD rFVIII (B domain deleted recombinant Factor VIII) (human) (UniProt P00451); assay: SPR, ProteOn XPR36; run 1 of 3 (top panel)
rFVIIIFc [5] = assay: SPR, ProteOn XPR36; run 2 of 3 (middle panel)
[6] = molecular target: BDD rFVIII (B domain deleted recombinant Factor VIII) (human) (UniProt P00451); assay: SPR, ProteOn XPR36; run 2 of 3 (middle panel)
rFVIIIFc [7] = assay: SPR, ProteOn XPR36; run 3 of 3 (bottom panel)
[8] = molecular target: BDD rFVIII (B domain deleted recombinant Factor VIII) (human) (UniProt P00451); assay: SPR, ProteOn XPR36; run 3 of 3 (bottom panel)
rFVIIIFc [9] = assay: SPR, ProteOn XPR36; run 1 of 3 (top panel) [continued]
[10] = molecular target: BDD rFVIII (B domain deleted recombinant Factor VIII) (human) (UniProt P00451); assay: as above
rFVIIIFc [11] = assay: SPR, ProteOn XPR36; run 3 of 3 (bottom panel) [continued]
[12] = molecular target: BDD rFVIII (B domain deleted recombinant Factor VIII) (human) (UniProt P00451); assay: as above
rFVIIIFc [13] = assay: SPR, ProteOn XPR36; run 2 of 3 (middle panel) [continued]
[14] = molecular target: BDD rFVIII (B domain deleted recombinant Factor VIII) (human) (UniProt P00451); assay: as above
rFVIIIFc [15] = assay: method not printed on the sheet or in the legend (affinities of Example 3 are by SPR); SD 0.0023 printed in the same row
[16] = molecular target: BDD rFVIII (B domain deleted recombinant Factor VIII) (human) (UniProt P00451); assay: method not printed on the sheet or in the legend (affinities of Example 3 are by SPR); SD 0.0073 printed in the same row

UniProt P00451, sequence (P00451 other isoform, or with tags, fused parts or gaps): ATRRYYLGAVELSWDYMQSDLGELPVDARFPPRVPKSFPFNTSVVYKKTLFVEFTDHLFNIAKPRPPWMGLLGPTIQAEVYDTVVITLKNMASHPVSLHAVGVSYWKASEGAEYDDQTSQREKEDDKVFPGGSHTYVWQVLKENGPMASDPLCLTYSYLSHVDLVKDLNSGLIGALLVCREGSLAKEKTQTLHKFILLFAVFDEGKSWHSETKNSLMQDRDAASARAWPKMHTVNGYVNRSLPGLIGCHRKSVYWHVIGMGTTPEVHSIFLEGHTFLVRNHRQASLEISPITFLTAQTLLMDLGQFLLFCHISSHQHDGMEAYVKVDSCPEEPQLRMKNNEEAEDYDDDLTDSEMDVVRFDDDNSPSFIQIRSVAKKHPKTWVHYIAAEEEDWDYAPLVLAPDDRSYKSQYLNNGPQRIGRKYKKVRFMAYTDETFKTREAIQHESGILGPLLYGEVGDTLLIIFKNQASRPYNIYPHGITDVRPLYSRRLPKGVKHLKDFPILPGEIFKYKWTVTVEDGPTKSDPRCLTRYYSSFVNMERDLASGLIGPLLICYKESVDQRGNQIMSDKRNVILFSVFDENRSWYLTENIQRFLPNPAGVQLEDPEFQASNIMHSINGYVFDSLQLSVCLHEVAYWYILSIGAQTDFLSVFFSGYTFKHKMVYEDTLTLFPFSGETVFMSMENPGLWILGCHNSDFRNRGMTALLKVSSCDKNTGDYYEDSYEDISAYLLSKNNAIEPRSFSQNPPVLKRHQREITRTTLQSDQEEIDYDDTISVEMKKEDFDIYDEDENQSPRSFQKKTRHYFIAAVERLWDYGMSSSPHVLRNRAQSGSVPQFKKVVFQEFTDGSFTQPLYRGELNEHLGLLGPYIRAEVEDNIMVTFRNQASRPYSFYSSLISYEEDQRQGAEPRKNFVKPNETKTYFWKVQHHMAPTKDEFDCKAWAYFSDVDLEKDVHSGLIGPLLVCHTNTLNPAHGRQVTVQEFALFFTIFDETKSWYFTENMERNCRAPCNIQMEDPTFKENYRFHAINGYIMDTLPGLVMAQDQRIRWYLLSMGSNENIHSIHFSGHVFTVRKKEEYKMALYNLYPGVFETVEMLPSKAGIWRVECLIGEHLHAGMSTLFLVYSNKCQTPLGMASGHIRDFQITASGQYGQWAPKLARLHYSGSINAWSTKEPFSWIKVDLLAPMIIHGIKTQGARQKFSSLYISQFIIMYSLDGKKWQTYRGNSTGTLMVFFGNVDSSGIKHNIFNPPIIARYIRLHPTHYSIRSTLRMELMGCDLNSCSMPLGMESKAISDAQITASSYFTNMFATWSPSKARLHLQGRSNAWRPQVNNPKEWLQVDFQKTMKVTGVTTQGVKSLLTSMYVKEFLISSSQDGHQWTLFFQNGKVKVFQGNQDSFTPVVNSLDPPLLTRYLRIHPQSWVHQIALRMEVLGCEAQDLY

Substance: ESH8 (antibody)
- Kd (rFVIIIFc [1]): 142 pM
- Kd [2]: 104 pM

Substance: GMA012 (antibody)
- Kd (rFVIIIFc [1]): 474 pM
- Kd [2]: 325 pM

Substance: GMA8014 (antibody)
- Kd (rFVIIIFc [3]): 127 pM
- koff (rFVIIIFc [3]): 0.000103 s⁻¹
- kon (rFVIIIFc [3]): 809000 M⁻¹ s⁻¹
- Kd [4]: 126 pM
- koff [4]: 0.000127 s⁻¹
- kon [4]: 1e+06 M⁻¹ s⁻¹
- Kd (rFVIIIFc [1]): 118 pM
- Kd [2]: 118 pM
- Kd (rFVIIIFc [5]): 139 pM
- koff (rFVIIIFc [5]): 0.000104 s⁻¹
- kon (rFVIIIFc [5]): 746000 M⁻¹ s⁻¹
- Kd [6]: 117 pM
- koff [6]: 0.000131 s⁻¹
- kon [6]: 1.12e+06 M⁻¹ s⁻¹
- Kd (rFVIIIFc [7]): 120 pM
- koff (rFVIIIFc [7]): 0.000104 s⁻¹
- kon (rFVIIIFc [7]): 865000 M⁻¹ s⁻¹
- Kd [8]: 114 pM
- koff [8]: 0.000119 s⁻¹
- kon [8]: 1.04e+06 M⁻¹ s⁻¹

Substance: GMA8020 (antibody)
- Kd (rFVIIIFc [9]): 64.7 pM
- koff (rFVIIIFc [9]): 0.000102 s⁻¹
- kon (rFVIIIFc [9]): 1.58e+06 M⁻¹ s⁻¹
- Kd [10]: 77 pM
- koff [10]: 0.000127 s⁻¹
- kon [10]: 1.65e+06 M⁻¹ s⁻¹
- Kd (rFVIIIFc [1]): 68.3 pM
- Kd [2]: 73.1 pM
- Kd (rFVIIIFc [11]): 66 pM
- koff (rFVIIIFc [11]): 0.00011 s⁻¹
- kon (rFVIIIFc [11]): 1.66e+06 M⁻¹ s⁻¹
- Kd [12]: 70 pM
- koff [12]: 0.000119 s⁻¹
- kon [12]: 1.7e+06 M⁻¹ s⁻¹
- Kd (rFVIIIFc [13]): 74.3 pM
- koff (rFVIIIFc [13]): 0.000118 s⁻¹
- kon (rFVIIIFc [13]): 1.59e+06 M⁻¹ s⁻¹
- Kd [14]: 72.2 pM
- koff [14]: 0.000124 s⁻¹
- kon [14]: 1.72e+06 M⁻¹ s⁻¹

Substance: ESH8 Fab
- Kd (rFVIIIFc [15]): 142 pM
- Kd [16]: 104 pM

Substance: GMA8011 (antibody)
- Kd (rFVIIIFc [9]): 91.3 pM
- koff (rFVIIIFc [9]): 0.000133 s⁻¹
- kon (rFVIIIFc [9]): 1.46e+06 M⁻¹ s⁻¹
- Kd [10]: 85.5 pM
- koff [10]: 0.000131 s⁻¹
- kon [10]: 1.53e+06 M⁻¹ s⁻¹
- Kd (rFVIIIFc [1]): 87.3 pM
- Kd [2]: 92.1 pM
- Kd (rFVIIIFc [11]): 90.2 pM
- koff (rFVIIIFc [11]): 0.000127 s⁻¹
- kon (rFVIIIFc [11]): 1.4e+06 M⁻¹ s⁻¹
- Kd [12]: 101 pM
- koff [12]: 0.000143 s⁻¹
- kon [12]: 1.42e+06 M⁻¹ s⁻¹
- Kd (rFVIIIFc [13]): 80.4 pM
- koff (rFVIIIFc [13]): 0.00012 s⁻¹
- kon (rFVIIIFc [13]): 1.49e+06 M⁻¹ s⁻¹
- Kd [14]: 89.7 pM
- koff [14]: 0.000138 s⁻¹
- kon [14]: 1.54e+06 M⁻¹ s⁻¹

Substance: ESH4 (antibody)
- Kd (rFVIIIFc [1]): 277 pM
- Kd [2]: 248 pM
